The data set in a line: total protein half-life in vivo (active degradation + dilution); higher = more stable protein.
The mark [1] stands for this setting: E. coli NCM3722 delta-hslV, growth: N-lim chemostat, doubling time 6 h.
[2] abbreviates: wild type E. coli NCM3722, growth: C-lim chemostat, doubling time 3 h.
Where [3] appears, read: E. coli NCM3722 delta-clpP delta-lon delta-hslV, growth: N-lim chemostat, doubling time 6 h.
[4] abbreviates: wild type E. coli NCM3722, growth: N-lim chemostat, doubling time 12 h.
The mark [5] stands for this setting: wild type E. coli NCM3722, growth: P-lim chemostat, doubling time 12 h.
Setting [6] is: E. coli NCM3722 delta-clpP, growth: N-lim chemostat, doubling time 6 h.
Where [7] appears, read: E. coli NCM3722 delta-lon, growth: N-lim chemostat, doubling time 6 h.
Setting [8] is: E. coli NCM3722 delta-smpB, growth: N-lim chemostat, doubling time 6 h.
Where [9] appears, read: wild type E. coli NCM3722, growth: C-lim chemostat, doubling time 6 h.
The mark [10] stands for this setting: wild type E. coli NCM3722, growth: C-lim chemostat, doubling time 12 h.
Setting [11] is: wild type E. coli NCM3722, growth: N-lim chemostat, doubling time 6 h.
[12] abbreviates: wild type E. coli NCM3722, growth: P-lim chemostat, doubling time 6 h.

± gives the standard deviation of the averaged measurements.

As for “MKKIGVAGLQREQIKKTIEATAPGCFEVFIHNDMEAAMKVKSGQLDYYIGACNTGAGAALSIAIAVIGYNKSCTIAKPGIKAKDEHIAKMIAEGKVAFGLSVEHVEHAIPMLINHLK”, the “total protein half-life in vivo” value worked out at 4.29 h under setting [1] and 3.02 h under setting [2].
With “MQQLASFLSGTWQSGRGRSRLIHHAISGEALWEVTSEGLDMAAARQFAIEKGAPALRAMTFIERAAMLKAVAKHLLSEKERFYALSAQTGATRADSWVDIEGGIGTLFTYASLGSRELPDDTLWPEDELIPLSKEGGFAARHLLTSKSGVAVHINAFNFPCWGMLEKLAPTWLGGMPAIIKPATATAQLTQAMVKSIVDSGLVPEGAISLICGSAGDLLDHLDSQDVVTFTGSAATGQMLRVQPNIVAKSIPFTMEADSLNCCVLGEDVTPDQPEFALFIREVVREMTTKAGQKCTAIRRIIVPQALVNAVSDALVARLQKVVVGDPAQEGVKMGALVNAEQRADVQEKVNILLAAGCEIRLGGQADLSAAGAFFPPTLLYCPQPDETPAVHATEAFGPVATLMPAQNQRHALQLACAGGGSLAGTLVTADPQIARQFIADAARTHGRIQILNEESAKESTGHGSPLPQLVHGGPGRAGGGEELGGLRAVKHYMQRTAVQGSPTMLAAISKQWVRGAKVEEDRIHPFRKYFEELQPGDSLLTPRRTMTEADIVNFACLSGDHFYAHMDKIAAAESIFGERVVHGYFVLSAAAGLFVDAGVGPVIANYGLESLRFIEPVKPGDTIQVRLTCKRKTLKKQRSAEEKPTGVVEWAVEVFNQHQTPVALYSILTLVARQHGDFVD”, the “total protein half-life in vivo” value runs as follows: under setting [3], 4.86 h; under setting [4], 6.08 h; under setting [5], 7.41 h.
For “MSVIAQAGAKGRQLHKFGGSSLADVKCYLRVAGIMAEYSQPDDMMVVSAAGSTTNQLINWLKLSQTDRLSAHQVQQTLRRYQCDLISGLLPAEEADSLISAFVSDLERLAALLDSGINDAVYAEVVGHGEVWSARLMSAVLNQQGLPAAWLDAREFLRAERAAQPQVDEGLSYPLLQQLLVQHPGKRLVVTGFISRNNAGETVLLGRNGSDYSATQIGALAGVSRVTIWSDVAGVYSADPRKVKDACLLPLLRLDEASELARLAAPVLHARTLQPVSGSEIDLQLRCSYTPDQGSTRIERVLASGTGARIVTSHDDVCLIEFQVPASQDFKLAHKEIDQILKRAQVRPLAVGVHNDRQLLQFCYTSEVADSALKILDEAGLPGELRLRQGLALVAMVGAGVTRNPLHCHRFWQQLKGQPVEFTWQSDDGISLVAVLRTGPTESLIQGLHQSVFRAEKRIGLVLFGKGNIGSRWLELFAREQSTLSARTGFEFVLAGVVDSRRSLLSYDGLDASRALAFFNDEAVEQDEESLFLWMRAHPYDDLVVLDVTASQQLADQYLDFASHGFHVISANKLAGASDSNKYRQIHDAFEKTGRHWLYNATVGAGLPINHTVRDLIDSGDTILSISGIFSGTLSWLFLQFDGSVPFTELVDQAWQQGLTEPDPRDDLSGKDVMRKLVILAREAGYNIEPDQVRVESLVPAHCEGGSIDHFFENGDELNEQMVQRLEAAREMGLVLRYVARFDANGKARVGVEAVREDHPLASLLPCDNVFAIESRWYRDNPLVIRGPGAGRDVTAGAIQSDINRLAQLL”, the “total protein half-life in vivo” value under setting [3] came to 3.69 ± 0.6 h; the “total protein half-life in vivo” value under setting [6] came out at 2.74 ± 0.12 h; the “total protein half-life in vivo” value under setting [1] stood at 2.95 ± 0.31 h; the “total protein half-life in vivo” value under setting [7] stood at 3.25 ± 0.14 h; the “total protein half-life in vivo” value under setting [8] is 3.01 ± 0.38 h; the “total protein half-life in vivo” value under setting [2] stood at 3.08 ± 0.22 h. For the same sequence, the “total protein half-life in vivo” value runs as follows: under setting [9], 4.89 ± 0.2 h; under setting [10], 9.3 ± 0.67 h; under setting [11], 2.79 ± 0.053 h; under setting [4], 4.57 ± 0.19 h; under setting [12], 6 ± 0.21 h; under setting [5], 11.1 ± 0.36 h.
For the sequence “MVSNASALGRNGVHDFILVRATAIVLTLYIIYMVGFFATSGELTYEVWIGFFASAFTKVFTLLALFSILIHAWIGMWQVLTDYVKPLALRLMLQLVIVVALVVYVIYGFVVVWGV [P0AC44]”, the “total protein half-life in vivo” value reads like this: under setting [1], 6.12 ± 0.19 h; under setting [2], 3.03 ± 0.042 h; under setting [9], 6.01 ± 0.4 h; under setting [10], 12 ± 4.5 h; under setting [11], 5.87 ± 0.39 h; under setting [5], 12.5 h.
For the sequence “MLKFILRRCLEAIPTLFILITISFFMMRLAPGSPFTGERTLPPEVMANIEAKYHLNDPIMTQYFSYLKQLAHGDFGPSFKYKDYSVNDLVASSFPVSAKLGAAAFFLAVILGVSAGVIAALKQNTKWDYTVMGLAMTGVVIPSFVVAPLLVMIFAIILHWLPGGGWNGGALKFMILPMVALSLAYIASIARITRGSMIEVLHSNFIRTARAKGLPMRRIILRHALKPALLPVLSYMGPAFVGIITGSMVIETIYGLPGIGQLFVNGALNRDYSLVLSLTILVGALTILFNAIVDVLYAVIDPKIRY [P0AFH2]”, the “total protein half-life in vivo” value runs as follows: under setting [3], 6.19 ± 0.36 h; under setting [6], 6.06 ± 0.43 h; under setting [1], 6.31 ± 0.27 h; under setting [7], 4.86 ± 1.2 h; under setting [8], 5.88 ± 0.32 h; under setting [2], 2.81 ± 0.28 h. In addition, the “total protein half-life in vivo” value reads like this: under setting [9], 5.75 ± 0.39 h; under setting [10], 13.4 ± 3.6 h; under setting [11], 4.92 ± 1.4 h; under setting [4], 13.5 h; under setting [12], 5.69 ± 1.4 h; under setting [5], 9.81 ± 1.4 h.
Turning to “MDLNTLISQYGYAALVIGSLAEGETVTLLGGVAAHQGLLKFPLVVLSVALGGMIGDQVLYLCGRRFGGKLLRRFSKHQDKIERAQKLIQRHPYLFVIGTRFMYGFRVIGPTLIGASQLPPKIFLPLNILGAFAWALIFTTIGYAGGQVIAPWLHNLDQHLKHWVWLILVVVLVVGVRWWLKRRGKKKPDHQA”, the “total protein half-life in vivo” value by setting is: under setting [3], 6.78 h; under setting [9], 5.72 h; under setting [4], 10.9 h; under setting [12], 6.18 h; under setting [5], 13.6 h.
As for “MRKSVIAIIIIVLVVLYMSVFVVKEGERGITLRFGKVLRDDDNKPLVYEPGLHFKIPFIETVKMLDARIQTMDNQADRFVTKEKKDLIVDSYIKWRISDFSRYYLATGGGDISQAEVLLKRKFSDRLRSEIGRLDVKDIVTDSRGRLTLEVRDALNSGSAGTEDEVTTPAADNAIAEAAERVTAETKGKVPVINPNSMAALGIEVVDVRIKQINLPTEVSEAIYNRMRAEREAVARRHRSQGQEEAEKLRATADYEVTRTLAEAERQGRIMRGEGDAEAAKLFADAFSKDPDFYAFIRSLRAYENSFSGNQDVMVMSPDSDFFRYMKTPTSATR [P0ABC3]”, the “total protein half-life in vivo” value under setting [3] came to 6.51 ± 1.1 h; the “total protein half-life in vivo” value under setting [6] was 6.07 ± 0.18 h; the “total protein half-life in vivo” value under setting [1] came out at 6.357 ± 0.024 h; the “total protein half-life in vivo” value under setting [7] is 6.347 ± 0.034 h; the “total protein half-life in vivo” value under setting [8] came out at 5.72 ± 0.33 h; the “total protein half-life in vivo” value under setting [2] came out at 3.09 ± 0.1 h. The “total protein half-life in vivo” value runs as follows: under setting [9], 6.06 ± 0.14 h; under setting [10], 11.7 ± 0.84 h; under setting [11], 6.653 ± 0.049 h; under setting [4], 12.7 ± 0.77 h; under setting [12], 6 ± 0.65 h; under setting [5], 13.8 ± 0.97 h.
In the case of “MAKYNEKELADTSKFLSFVLRHKPEAIGIVLDREGWADIDKLILCAQKAGKRLTRALLDTVVATSDKKRFSYSSDGRCIRAVQGHSTSQVAISFAEKTPPQFLYHGTASRFLDEIKKQGLIAGERHYVHLSADEATARKVGARHGSPVILTVKAQEMAKRGLPFWQAENGVWLTSTVAVEFLEW”, the “total protein half-life in vivo” value under setting [3] was 4.33 h; the “total protein half-life in vivo” value under setting [6] amounted to 1.59 h; the “total protein half-life in vivo” value under setting [7] amounted to 2.51 h; the “total protein half-life in vivo” value under setting [8] turned out to be 1.27 ± 0.11 h; the “total protein half-life in vivo” value under setting [2] was determined as 1.85 h; the “total protein half-life in vivo” value under setting [9] was 2.25 ± 0.44 h. Besides, the “total protein half-life in vivo” value under setting [10] was 5.97 h.
For the sequence “MDSIHGHEVLNMMIESGEQYTHASLEAAIKARFGEQARFHTCSAEGMTAGELVAFLAAKGKFIPSKDGFSTDQSKICRH”, the “total protein half-life in vivo” value under setting [9] turned out to be 5.53 h.

The values are drawn from the supplement of paper PMC11246515.
